The record followed here is patent publication US20020160403.

Series [1] concerns the target PHAS-I.
Series [2] has as its target huBUB3 protein (untagged; expression plasmid p291-2, ~2.7 kb variant).
Series [3] has as its target FLAG-huBUB3 protein fusion (plasmid p322-1).

Chain of huBUB3 protein (untagged; expression plasmid p291-2, ~2.7 kb variant) (chain, as listed by the source mutant): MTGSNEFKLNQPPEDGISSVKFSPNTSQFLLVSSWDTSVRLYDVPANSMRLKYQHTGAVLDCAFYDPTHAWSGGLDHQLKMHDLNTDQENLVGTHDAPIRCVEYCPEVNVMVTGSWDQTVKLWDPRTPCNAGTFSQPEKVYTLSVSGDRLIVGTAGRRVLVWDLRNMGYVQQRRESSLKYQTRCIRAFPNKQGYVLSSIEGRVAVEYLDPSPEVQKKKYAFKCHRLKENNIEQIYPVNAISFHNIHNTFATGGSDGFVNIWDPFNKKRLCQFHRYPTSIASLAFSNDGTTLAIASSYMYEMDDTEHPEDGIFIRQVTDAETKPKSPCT
Chain of FLAG-huBUB3 protein fusion (plasmid p322-1) (chain, as listed by the source): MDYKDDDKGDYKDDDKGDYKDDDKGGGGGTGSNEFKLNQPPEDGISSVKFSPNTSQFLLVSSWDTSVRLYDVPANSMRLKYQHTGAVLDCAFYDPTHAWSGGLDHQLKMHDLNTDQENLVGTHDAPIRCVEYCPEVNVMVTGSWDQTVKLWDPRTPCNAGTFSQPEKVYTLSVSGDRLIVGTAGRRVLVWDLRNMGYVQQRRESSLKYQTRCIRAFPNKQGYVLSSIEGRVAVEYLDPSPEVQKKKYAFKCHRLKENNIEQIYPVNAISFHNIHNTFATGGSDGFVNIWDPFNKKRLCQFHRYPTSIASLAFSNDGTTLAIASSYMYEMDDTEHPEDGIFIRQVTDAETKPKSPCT

B1: huBUB1 protein (plasmid p337-50) (protein)
chain: MDTPENVLQMLEAHMQSYKGNDPLGEWERYIQWVEENFPENKEYLITLLEHLMKEFLDKKKYHNDPRFISYCLKFAEYNSDLHQFFEFLYNHGIGTLSSPLYIAWAGHLEAQGELQHASAVLQRGIQNQAEPREFLQQQYRLFQTRLTETHLPAQARTSEPLHNVQVLNQMITSKSNPGNNMACISKNQGSELSGVISSACDKESNMERRVITISKSEYSVHSSLASKVDVEQVVMYCKEKLIRGESEFSFEELRAQKYNQRRKHEQWVNEDRHYMKRKEANAFEEQLLKQKMDELHKKLHQVVETSHEDLPASQERSEVNPARMGPSVGSQQELRAPCLPVTYQQTPVNMEKNPREAPPVVPPLANAISAALVSPATSQSIAPPVPLKAQTVTDSMFAVASKDAGCVNKSTHEFKPQSGAEIKEGCETHKVANTSSFHTTPNTSLGMVQATPSKVQPSPTVHTKEALGFIMNMFQAPTLPDISDDKDEWQSLDQNEDAFEAQFQKNVRSSGAWGVNKIISSLSSAFHVFEDGNKENYGLPQPKNKPTGARTFGERSVSRLPSKPKEEVPHAEEFLDDSTVWGIRCNKTLAPSPKSPGDFTSAAQLASTPFHKLPVESVHILEDKENVVAKQCTQATLDSCEENMVVPSRDGKFSPIQEKSPKQALSSHMYSASLLRLSQPAAGGVLTCEAELGVEACRLTDTDAAIAEDPPDAIAGLQAEWMQMSSLGTVDAPNFIVGNPWDDKLIFKLLSGLSKPVSSYPNTFEWQCKLPAIKPKTEFQLGSKLVYVHHLLGEGAFAQVYEATQGDLNDAKNKQKFVLKVQKPANPWEFYIGTQLMERLKPSMQHMFMKFYSAHLFQNGSVLVGELYSYGTLLNAINLYKNTPEKVMPQGLVISFAMRMLYMIEQVHDCEIIHGDIKPDNFILGNGFLEQDDEDDLSAGLALIDLGQSIDMKLFPKGTIFTAKCETSGFQCVEMLSNKPWNYQIDYFGVAATVYCMLFGTYMKVKNEGGECKPEGLFRRLPHLDMWNEFFHVMLNIPDCHHLPSLDLLRQKLKKVFQQHYTNKIRALRNRLIVLLLECKRSRK
For the protein B1, the “in vitro kinase activity towards test proteins” value in series [1] is listed as “identified PHAS-I as an in vitro substrate of the huBUB1 kinase”.

B2: HA-huBUB1 (protein)
chain: B1 chain
Consider B2, for which, in series [2], the huBUB1 auto-phosphorylation result was “did not reproducibly stimulate or inhibit huBUB1 auto-phosphorylation” and the “phosphorylation in kinase reactions” value is “only HA-huBUB1 auto-phosphorylation was observed in kinase reactions containing these proteins”. Besides, the “phosphorylation in kinase reactions” value in series [3] is “only HA-huBUB1 auto-phosphorylation was observed in kinase reactions containing these proteins”.
